From patent US20200188479A1 (INTARCIA THERAPEUTICS, published 2020)
Ends that are not written are not given here.

Biological target: fraction V human serum albumin (human, UniProt P02768 25-609)
Test: cell-based or functional assay

Chain of fraction V human serum albumin (P02768 25-609 limits assumed): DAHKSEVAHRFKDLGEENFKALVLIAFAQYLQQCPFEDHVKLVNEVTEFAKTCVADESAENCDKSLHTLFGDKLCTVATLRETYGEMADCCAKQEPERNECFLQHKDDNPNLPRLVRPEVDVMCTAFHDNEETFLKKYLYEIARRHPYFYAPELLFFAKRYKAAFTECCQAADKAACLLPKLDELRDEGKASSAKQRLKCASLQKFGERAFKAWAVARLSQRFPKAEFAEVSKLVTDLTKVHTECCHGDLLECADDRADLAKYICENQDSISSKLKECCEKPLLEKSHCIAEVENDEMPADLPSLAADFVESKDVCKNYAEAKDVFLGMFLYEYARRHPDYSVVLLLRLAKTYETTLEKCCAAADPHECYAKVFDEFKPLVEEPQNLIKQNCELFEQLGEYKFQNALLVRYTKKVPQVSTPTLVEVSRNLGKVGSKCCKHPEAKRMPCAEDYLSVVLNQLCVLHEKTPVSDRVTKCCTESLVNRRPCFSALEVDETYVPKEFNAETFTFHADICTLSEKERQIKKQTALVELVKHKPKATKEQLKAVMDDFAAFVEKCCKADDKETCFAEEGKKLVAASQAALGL

Question: With HAEGTFTSDVSSYLEGQAAKEFIAWLVKGR-NH2 [human GLP-1[7-36]NH2] as the binder, how does the “albumin-mediated change in potency for activation of GLP-1 receptors at 4% HSA versus 0.1% HSA” value read?
Answer: 0.54 fold (×)

Question: What about the “potency shift in 4% vs 0.1% albumin (cAMP accumulation in hGLP1R-expressing CHO-K1 cells)” value of the same binder?
Answer: 1.8 fold

B1: semaglutide (peptide)
peptide: HXEGTFTSDVSSYLEGQAAKEFIAWLVRGRG
modifications: Aib in position 8 (GLP-1 numbering); Lys carries N6-[N-(17-carboxy-1-oxoheptadecyl-L-c-glutamyl[2-(2-aminoethoxy)ethoxy]acetyl[2-(2-aminoethoxy)ethoxy]acetyl] residue (as printed in paragraph 217))
Question: With B1 as the binder, how does the “fold decrease in potency shift in 4% vs 0.1% albumin (cAMP accumulation in hGLP1R-expressing CHO-K1 cells)” value read?
Answer: 19.9 fold

Question: What about the “reduction in potency in 4% vs 0.1% albumin, relative to the effect observed with GLP-1[7-36]NH2” value of the same binder?
Answer: 36.8 fold
